Where two headings read alike, the source gives them in different places.

In assay [1] the target is histone H4 (Homo sapiens) (UniProt P62805). The settings on record: cited from earlier work.
In assay [2] the target is histone H3 (Homo sapiens) (UniProt P68431). Conditions: cited from earlier work.
Assay [3] shares this target. The settings on record: cited from earlier work. The source holds these as a separate data set.
Assay [4] deals with histone H3 from calf thymus histones (UniProt P68432). Kind of assay: GST pull-down, immunoblot with α-H3, band level printed under lane. Conditions: calf thymus histones (CTH); CTH input 5%. On the technique in general: A western blot detects proteins with antibodies after separation by electrophoresis.

As for “53BP1 tandem TUDOR domain (from UniProt Q12888)”, the figures for the Kd in assay [1] and in assay [2] were 20 µM and 2000 µM, respectively.
For EED WD40 (from UniProt O75530), the Kd in assay [3] was more than 400 µM.
“GST-ING3PHD (PHD domain of the H3K4me3 reader ING3) W385A”: the response in assay [4] worked out at 0.3.

The Kd is the equilibrium constant for the complex coming apart.

The values are drawn from PMC9993015.
